From paper doi:10.1101/2022.12.22.521671 (bioRxiv, 2022)

B1: D5 Fab (Fab, V domains shown)
VH: QVQLVQSGAEVRKPGASVKVSCKASGDTFSSYAISWVRQAPGQGLEWMGGIIPIFGTANYAQAFQGRVTITANESTSTAYMELSSLRSEDTAIYYCARDNPTLLGSDYWGAGTLVTVSS
VL: DIQMTQSPSTLSASIGDRVTITCRASEGIYHWLAWYQQKPGKAPKLLIYKASSLASGAPSRFSGSGSGTDFTLTISSLQPDDFATYYCQQYSNYPLTFGGGTKLEIK

Tests used:
Assay in all cases: BLI
[1] = target: biotinylated IQN17 (HIV-1 HXB2) (UniProt P04578)
[2] = target: biotinylated IQN22 (HIV-1 HXB2) (UniProt P04578)
[3] = target: T1, biotinylated IQN17 (HIV-1 HXB2 gp41 565-581 fused to …, chimera, not fully specified; biotin (position not given))
T1 chain: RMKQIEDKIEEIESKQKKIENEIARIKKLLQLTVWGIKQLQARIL

[4] = target: T2, biotinylated IQN22 (HIV-1 HXB2 gp41 565-586 fused to …, chimera, not fully specified; biotin (position not given))
T2 chain: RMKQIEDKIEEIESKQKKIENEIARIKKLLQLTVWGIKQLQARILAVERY

Row | Molecule | Kd [1] [nM] | Kd [2] [nM] | Kd [3] [nM] | Kd [4] [nM]
1 | PIE12 (peptide) | 3 | 2 | – | –
2 | B1 | – | – | 14 | 5
